Reference: patent US11325966

Key:
Assay in all cases: cell-based or functional assay
[1] = target: HIV-1 YU2 Env N276D, on pseudovirus (HIV-1) (UniProt P35961)
[2] = target: HIV-1 YU2 Env N280Y, on pseudovirus (HIV-1) (UniProt P35961)
[3] = target: HIV-1 Env of pseudovirus BG505/T332N (HIV-1)
[4] = target: HIV-1 YU2 Env N332K, on pseudovirus (HIV-1) (UniProt P35961)
[5] = target: HIV-1 envelope (Env) of pseudovirus Ce1172_H1 (HIV-1)
[6] = target: HIV-1 envelope (Env) of pseudovirus WEAU_d15_410_787 (HIV-1)
[7] = target: HIV-1 envelope (Env) of pseudovirus MS208.A1 (HIV-1)
[8] = target: HIV-1 envelope (Env) of pseudovirus Ce2010_F5 (HIV-1)
[9] = target: HIV-1 envelope (Env) of pseudovirus QH0692.42 (HIV-1)
[10] = target: HIV-1 envelope (Env) of pseudovirus T255-34 (HIV-1)
[11] = target: HIV-1 envelope (Env) of pseudovirus 1006_11_C3_1601 (HIV-1)
[12] = target: HIV-1 envelope (Env) of pseudovirus ZM53M.PB12 (HIV-1)
[13] = target: HIV-1 envelope (Env) of pseudovirus 191955_A11 (HIV-1)
[14] = target: HIV-1 envelope (Env) of pseudovirus Ce1086_B2 (HIV-1)
[15] = target: HIV-1 envelope (Env) of pseudovirus Q769.d22 (HIV-1)
[16] = target: HIV-1 envelope (Env) of pseudovirus X2088_c9 (HIV-1)
[17] = target: HIV-1 envelope (Env) of pseudovirus Ce0393_C3 (HIV-1)
[18] = target: HIV-1 envelope (Env) of pseudovirus 191821_E6_1 (HIV-1)
[19] = target: HIV-1 envelope (Env) of pseudovirus 1054_07_TC4_1499 (HIV-1)
[20] = target: HIV-1 envelope (Env) of pseudovirus Q259.d2.17 (HIV-1)
[21] = target: HIV-1 envelope (Env) of pseudovirus REJO4541.67 (HIV-1)
[22] = target: HIV-1 envelope (Env) of pseudovirus SC05_8C11_2344 (HIV-1)
[23] = target: HIV-1 envelope (Env) of pseudovirus 6244_13_B5_4576 (HIV-1)
[24] = target: HIV-1 envelope (Env) of pseudovirus Ce1176_A3 (HIV-1)
[25] = target: HIV-1 envelope (Env) of pseudovirus 89-F1_2_25 (HIV-1)
[26] = target: HIV-1 envelope (Env) of pseudovirus BJOX009000.02.4 (HIV-1)
[27] = target: HIV-1 envelope (Env) of pseudovirus 1012_11_TC21_3257 (HIV-1)
[28] = target: HIV-1 envelope (Env) of pseudovirus SC422661.8 (HIV-1)
[29] = target: HIV-1 envelope (Env) of pseudovirus 3365.v2.c2 (HIV-1)
[30] = target: HIV-1 envelope (Env) of pseudovirus BJOX025000.01.1 (HIV-1)
[31] = target: HIV-1 envelope (Env) of pseudovirus YU2_N332K (HIV-1) (UniProt P35961)
[32] = target: HIV-1 envelope (Env) of pseudovirus 191084 B7-19 (HIV-1)
[33] = target: HIV-1 envelope (Env) of pseudovirus 9004SS_A3_4 (HIV-1)
[34] = target: HIV-1 envelope (Env) of pseudovirus ZM135M.PL10a (HIV-1)
[35] = target: HIV-1 envelope (Env) of pseudovirus Du422.1 (HIV-1)
[36] = target: BG505 (T332N) N339A (HIV-1)
JR-CSF N295A (HIV-1) = JR-CSF N295A (HIV-1) (UniProt P20871)
JR-CSF R327A (HIV-1) = JR-CSF R327A (HIV-1) (UniProt P20871)

## BG18 IgG (354BG18) (antibody)
[1]
  IC50 in TZM-bl assay: 0.012 µg/mL
  IC80 in TZM-bl assay: 0.036 µg/mL
[2]
  IC50 in TZM-bl assay: 0.005 µg/mL
  IC80 in TZM-bl assay: 0.016 µg/mL
[3]
  IC50 in TZM-bl assay: < 0.0001 µg/mL
  IC80 in TZM-bl assay: 0.002 µg/mL
[4]
  IC50 in TZM-bl assay: > 30 µg/mL
  IC80 in TZM-bl assay: > 30 µg/mL

## BG1 (antibody)
[5]
  IC50 in TZM-bl assay: > 30 µg/mL
  IC80 in TZM-bl assay: > 30 µg/mL
[6]
  IC50 in TZM-bl assay: > 30 µg/mL
  IC80 in TZM-bl assay: > 30 µg/mL
[7]
  IC50 in TZM-bl assay: 1.48 µg/mL
  IC80 in TZM-bl assay: 6.54 µg/mL
[8]
  IC50 in TZM-bl assay: > 30 µg/mL
  IC80 in TZM-bl assay: > 30 µg/mL
[9]
  IC50 in TZM-bl assay: > 30 µg/mL
  IC80 in TZM-bl assay: > 30 µg/mL
[10]
  IC50 in TZM-bl assay: 11.6 µg/mL
  IC80 in TZM-bl assay: > 30 µg/mL
[11]
  IC50 in TZM-bl assay: > 30 µg/mL
  IC80 in TZM-bl assay: > 30 µg/mL
[12]
  IC50 in TZM-bl assay: > 30 µg/mL
  IC80 in TZM-bl assay: > 30 µg/mL
[13]
  IC50 in TZM-bl assay: 0.008 µg/mL
  IC80 in TZM-bl assay: 0.018 µg/mL
[14]
  IC50 in TZM-bl assay: > 30 µg/mL
  IC80 in TZM-bl assay: > 30 µg/mL
[15]
  IC50 in TZM-bl assay: > 30 µg/mL
  IC80 in TZM-bl assay: > 30 µg/mL
[16]
  IC50 in TZM-bl assay: > 30 µg/mL
  IC80 in TZM-bl assay: > 30 µg/mL
[17]
  IC50 in TZM-bl assay: > 30 µg/mL
  IC80 in TZM-bl assay: > 30 µg/mL
[18]
  IC50 in TZM-bl assay: > 30 µg/mL
  IC80 in TZM-bl assay: > 30 µg/mL
[19]
  IC50 in TZM-bl assay: > 30 µg/mL
  IC80 in TZM-bl assay: > 30 µg/mL
[20]
  IC50 in TZM-bl assay: > 30 µg/mL
  IC80 in TZM-bl assay: > 30 µg/mL
[21]
  IC50 in TZM-bl assay: 0.342 µg/mL
  IC80 in TZM-bl assay: 1.66 µg/mL
[22]
  IC50 in TZM-bl assay: > 30 µg/mL
  IC80 in TZM-bl assay: > 30 µg/mL
[23]
  IC50 in TZM-bl assay: > 30 µg/mL
  IC80 in TZM-bl assay: > 30 µg/mL
[24]
  IC50 in TZM-bl assay: 0.031 µg/mL
  IC80 in TZM-bl assay: 0.165 µg/mL
[25]
  IC50 in TZM-bl assay: > 30 µg/mL
  IC80 in TZM-bl assay: > 30 µg/mL
[26]
  IC50 in TZM-bl assay: > 30 µg/mL
  IC80 in TZM-bl assay: > 30 µg/mL
[27]
  IC50 in TZM-bl assay: > 30 µg/mL
  IC80 in TZM-bl assay: > 30 µg/mL
[28]
  IC50 in TZM-bl assay: > 30 µg/mL
  IC80 in TZM-bl assay: > 30 µg/mL
[29]
  IC50 in TZM-bl assay: 1.16 µg/mL
  IC80 in TZM-bl assay: 4.27 µg/mL
[30]
  IC50 in TZM-bl assay: > 30 µg/mL
  IC80 in TZM-bl assay: > 30 µg/mL
[31]
  IC50 in TZM-bl assay: 19.4 µg/mL
  IC80 in TZM-bl assay: > 30 µg/mL
[32]
  IC50 in TZM-bl assay: > 30 µg/mL
  IC80 in TZM-bl assay: > 30 µg/mL
[33]
  IC50 in TZM-bl assay: > 30 µg/mL
  IC80 in TZM-bl assay: > 30 µg/mL
[34]
  IC50 in TZM-bl assay: > 30 µg/mL
  IC80 in TZM-bl assay: > 30 µg/mL
[35]
  IC50 in TZM-bl assay: 1.8 µg/mL
  IC80 in TZM-bl assay: 13.7 µg/mL

## 354BG8 (antibody)
[36]
  IC50 in TZM-bl assay: 0.007 µg/mL
JR-CSF N295A (HIV-1)
  IC50 in TZM-bl assay: 0.006 µg/mL
JR-CSF R327A (HIV-1)
  IC50 in TZM-bl assay: 0.005 µg/mL
